Assay results: US20190218292A1 (LABORATOIRE FRAN AIS DU FRACTIONNEMENT ET DES BIOT …, published 2019)

Experiments:
[1] = molecular target: T1, murine PD1 antigen (murine, UniProt Q02242 25-167, limits assumed); experiment: ELISA, coated murine PD1
T1 sequence (looked up): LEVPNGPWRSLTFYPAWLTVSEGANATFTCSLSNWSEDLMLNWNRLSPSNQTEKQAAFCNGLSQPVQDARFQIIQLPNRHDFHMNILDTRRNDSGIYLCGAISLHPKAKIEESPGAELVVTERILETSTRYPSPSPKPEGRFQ

[2] = molecular target: T2, cynomolgus monkey PD1 antigen (cynomolgus monkey, UniProt B0LAJ3 25-170); experiment: ELISA, coated cynomolgus PD1
T2 construct: also called cynomolgus PD1
T2 sequence (B0LAJ3 entry or part of it limits assumed, form in doubt): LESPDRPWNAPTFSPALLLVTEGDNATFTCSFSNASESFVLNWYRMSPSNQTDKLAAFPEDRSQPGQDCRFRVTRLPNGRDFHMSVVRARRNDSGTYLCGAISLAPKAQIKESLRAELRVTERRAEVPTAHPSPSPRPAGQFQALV

OD 450 nm at 0.2 µg/ml [1]: 0.305 OD 450 nm
OD 450 nm at 0.2 µg/ml [2]: 2.39 OD 450 nm
B1: IgG1_WT nivolumab (antibody, V domains shown)
VH: QVQLVESGGGVVQPGRSLRLDCKASGITFSNSGMHWVRQAPGKGLEWVAVIWYDGSKRYYADSVKGRFTISRDNSKNTLFLQMNSLRAEDTAVYYCATNDDYWGQGTLVTVSS
VL: EIVLTQSPATLSLSPGERATLSCRASQSVSSYLAWYQQKPGQAPRLLIYDASNRATGIPARFSGSGSGTDFTLTISSLEPEDFAVYYCQQSSNWPRTFGQGTKVEIK
